Laboratory results as given in publication PMC10397247.

Legend:
Test in all cases: two-hybrid library CCmax;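 also: natural log of median RNA to DNA barcode read ratio; higher means stronger binding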
4H1552-AA = target: T1, 4H1552-AA
T1 chain: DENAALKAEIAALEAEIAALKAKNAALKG

4H1636-AA = target: T2, 4H1636-AA; conditions: mean of both orientations
T2 chain: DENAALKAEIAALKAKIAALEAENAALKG

4H1867-AA = target: T3, 4H1867-AA; conditions: mean of both orientations
T3 chain: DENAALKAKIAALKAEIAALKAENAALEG

4H2078-AA = target: T4, 4H2078-AA; conditions: mean of both orientations
T4 chain: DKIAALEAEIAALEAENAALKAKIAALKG

4H2151-AA = target: T5, 4H2151-AA; conditions: mean of both orientations
T5 chain: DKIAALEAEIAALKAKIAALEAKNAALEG

4H2165-AA = target: T6, 4H2165-AA; conditions: mean of both orientations
T6 chain: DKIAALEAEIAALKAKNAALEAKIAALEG

4H2190-AA = target: T7, 4H2190-AA; conditions: mean of both orientations
T7 chain: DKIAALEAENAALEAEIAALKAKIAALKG

4H2277-AA = target: T8, 4H2277-AA; conditions: mean of both orientations
T8 chain: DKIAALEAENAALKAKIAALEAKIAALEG

4H234-AA = target: T9, 4H234-AA; conditions: mean of both orientations
T9 chain: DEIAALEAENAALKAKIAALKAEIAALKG

4H2354-AA = target: T10, 4H2354-AA; conditions: mean of both orientations
T10 chain: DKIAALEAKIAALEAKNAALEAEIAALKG

4H2393-AA = target: T11, 4H2393-AA; conditions: mean of both orientations
T11 chain: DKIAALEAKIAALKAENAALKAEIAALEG

4H2466-AA = target: T12, 4H2466-AA; conditions: mean of both orientations
T12 chain: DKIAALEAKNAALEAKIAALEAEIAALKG

4H2505-AA = target: T13, 4H2505-AA; conditions: mean of both orientations
T13 chain: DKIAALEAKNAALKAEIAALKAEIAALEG

4H2575-AA = target: T14, 4H2575-AA; conditions: mean of both orientations
T14 chain: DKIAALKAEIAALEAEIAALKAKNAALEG

4H2617-AA = target: T15, 4H2617-AA; conditions: mean of both orientations
T15 chain: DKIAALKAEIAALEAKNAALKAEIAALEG

4H2642-AA = target: T16, 4H2642-AA; conditions: mean of both orientations
T16 chain: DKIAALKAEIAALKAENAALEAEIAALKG

4H2729-AA = target: T17, 4H2729-AA; conditions: mean of both orientations
T17 chain: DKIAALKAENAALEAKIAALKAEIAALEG

4H2754-AA = target: T18, 4H2754-AA; conditions: mean of both orientations
T18 chain: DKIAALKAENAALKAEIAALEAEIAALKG

4H2837-AA = target: T19, 4H2837-AA; conditions: mean of both orientations
T19 chain: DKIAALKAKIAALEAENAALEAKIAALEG

4H2883-AA = target: T20, 4H2883-AA; conditions: mean of both orientations
T20 chain: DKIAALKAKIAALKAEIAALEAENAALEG

4H2944-AA = target: T21, 4H2944-AA; conditions: mean of both orientations
T21 chain: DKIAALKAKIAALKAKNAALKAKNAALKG

4H2949-AA = target: T22, 4H2949-AA; conditions: mean of both orientations
T22 chain: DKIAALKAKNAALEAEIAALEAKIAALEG

4H3112-AA = target: T23, 4H3112-AA; conditions: mean of both orientations
T23 chain: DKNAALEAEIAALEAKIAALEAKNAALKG

4H317-AA = target: T24, 4H317-AA; conditions: mean of both orientations
T24 chain: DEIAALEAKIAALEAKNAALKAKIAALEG

4H3343-AA = target: T25, 4H3343-AA; conditions: mean of both orientations
T25 chain: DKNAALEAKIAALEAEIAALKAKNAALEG

4H335-AA = target: T26, 4H335-AA
T26 chain: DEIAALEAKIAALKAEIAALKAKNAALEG

4H342-AA = target: T27, 4H342-AA; conditions: mean of both orientations
T27 chain: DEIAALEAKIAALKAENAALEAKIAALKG

4H3427-AA = target: T28, 4H3427-AA; conditions: mean of both orientations
T28 chain: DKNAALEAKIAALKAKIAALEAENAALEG

4H3606-AA = target: T29, 4H3606-AA; conditions: mean of both orientations
T29 chain: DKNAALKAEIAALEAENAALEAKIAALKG

4H3627-AA = target: T30, 4H3627-AA; conditions: mean of both orientations
T30 chain: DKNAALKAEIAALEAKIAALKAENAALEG

4H3655-AA = target: T31, 4H3655-AA; conditions: mean of both orientations
T31 chain: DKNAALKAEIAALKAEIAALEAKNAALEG

4H3844-AA = target: T32, 4H3844-AA; conditions: mean of both orientations
T32 chain: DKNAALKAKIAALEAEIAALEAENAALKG

4H3921-AA = target: T33, 4H3921-AA; conditions: mean of both orientations
T33 chain: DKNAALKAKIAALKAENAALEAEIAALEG

4H429-AA = target: T34, 4H429-AA; conditions: mean of both orientations
T34 chain: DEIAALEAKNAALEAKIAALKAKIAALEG

4H454-AA = target: T35, 4H454-AA; conditions: mean of both orientations
T35 chain: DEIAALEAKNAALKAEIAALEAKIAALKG

4H48-AA = target: T36, 4H48-AA; conditions: mean of both orientations
T36 chain: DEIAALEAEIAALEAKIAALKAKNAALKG

4H566-AA = target: T37, 4H566-AA; conditions: mean of both orientations
T37 chain: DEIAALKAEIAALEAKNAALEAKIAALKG

4H605-AA = target: T38, 4H605-AA; conditions: mean of both orientations
T38 chain: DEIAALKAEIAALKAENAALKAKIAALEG

4H678-AA = target: T39, 4H678-AA; conditions: mean of both orientations
T39 chain: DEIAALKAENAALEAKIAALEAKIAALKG

4H717-AA = target: T40, 4H717-AA; conditions: mean of both orientations
T40 chain: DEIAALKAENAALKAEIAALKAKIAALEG

4H780-AA = target: T41, 4H780-AA; conditions: mean of both orientations
T41 chain: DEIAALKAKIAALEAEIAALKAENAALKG

4H794-AA = target: T42, 4H794-AA; conditions: mean of both orientations
T42 chain: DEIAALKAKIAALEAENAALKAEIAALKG

4H881-AA = target: T43, 4H881-AA; conditions: mean of both orientations
T43 chain: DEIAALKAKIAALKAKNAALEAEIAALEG

4H906-AA = target: T44, 4H906-AA; conditions: mean of both orientations
T44 chain: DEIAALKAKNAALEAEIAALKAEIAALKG

4H993-AA = target: T45, 4H993-AA; conditions: mean of both orientations
T45 chain: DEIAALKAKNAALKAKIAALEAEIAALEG

- interaction score (4H1552-AA): 0.838
- interaction score (4H1636-AA): 0.254
- interaction score (4H1867-AA): 2.28
- interaction score (4H2078-AA): -0.958
- interaction score (4H2151-AA): -0.598
- interaction score (4H2165-AA): -1.44
- interaction score (4H2190-AA): -0.831
- interaction score (4H2277-AA): -1.3
- interaction score (4H234-AA): 1.6
- interaction score (4H2354-AA): -1.41
- interaction score (4H2393-AA): -1.36
- interaction score (4H2466-AA): -1.4
- interaction score (4H2505-AA): -0.681
- interaction score (4H2575-AA): -0.206
- interaction score (4H2617-AA): -0.622
- interaction score (4H2642-AA): 0.755
- interaction score (4H2729-AA): -0.018
- interaction score (4H2754-AA): -0.498
- interaction score (4H2837-AA): -0.547
- interaction score (4H2883-AA): 2.2
- interaction score (4H2944-AA): -1.04
- interaction score (4H2949-AA): -1.42
- interaction score (4H3112-AA): -0.246
- interaction score (4H317-AA): 0.795
- interaction score (4H3343-AA): 0.455
- interaction score (4H335-AA): 1.76
- interaction score (4H342-AA): -0.367
- interaction score (4H3427-AA): 1.64
- interaction score (4H3606-AA): -0.722
- interaction score (4H3627-AA): 1.45
- interaction score (4H3655-AA): 1.01
- interaction score (4H3844-AA): 1.43
- interaction score (4H3921-AA): -0.743
- interaction score (4H429-AA): -0.746
- interaction score (4H454-AA): -0.754
- interaction score (4H48-AA): 0.191
- interaction score (4H566-AA): -0.817
- interaction score (4H605-AA): -1.23
- interaction score (4H678-AA): -0.931
- interaction score (4H717-AA): -0.949
- interaction score (4H780-AA): 0.0206
- interaction score (4H794-AA): -1.55
- interaction score (4H881-AA): -0.939
- interaction score (4H906-AA): -1.18
- interaction score (4H993-AA): -0.53
B1: 4H1552-AA (peptide)
chain: DENAALKAEIAALEAEIAALKAKNAALKG
